Measurements as given in PMC5290273 (Nature Communications, 2017).

B1: Sumo-ELL2^Occ, wild type [human] / fluorescently labelled AFF1^ELLBow peptide 358–390 [modified: C-FAM-GABA- at the N-terminus (FAM: 5-carboxyfluoroscein; GABA: γ-amino-butyric acid spacer); C-terminal amide; C-FAM-GABA- at the N-terminus … (parent complex)
chain 1: EPSAIELPDYLIKYIAIVSYEQRQNYKDDFNAEYDEYRALHARMETVARRFIKLDAQRKRLSPGSKEYQNVHEEVLQEYQKIKQSSPNYHEEKYRCEYLHNKLAHIKRLIGEFDQQQAESWS
chain 2: EILKEMTHSWPPPLTAIHTPSTAEPSKFPFPTK
B2: His6-tagged wild-type AFF4^ELLBow (AFF4 301–351) [human] / Sumo-ELL2^Occ, wild type [human] (parent complex)
chain 1: PSQPLDASASGDVSCVDEILKEMTHSWPPPLTAIHTPCKTEPSKFPFPTKE
chain 2: B1 chain 1

Variants of: B1
Assay: fluorescence polarisation, direct titration; signal at the highest Sumo-ELL2 concentration, about 30 µM read from the x axis; read off a plot

| Variant | response [mP] |
| --- | --- |
| chain 1 H41E, chain 1 H90E, chain 1 N101A, chain 1 K107T | ~7 |

Variants of: B2
Assay: fluorescence polarisation competition; residual anisotropy at the highest unlabelled AFF4 concentration, about 30 µM read from the x axis; higher residual anisotropy = weaker competition; read off a plot

| Variant | response [mP] |
| --- | --- |
| chain 1 D17P, chain 1 E18P | ~7 |

Variants of: B2
Assay: as above
Remark: another data set of the same source

| Variant | response [mP] |
| --- | --- |
| chain 1 L31D, chain 1 I34D | ~17 |
| chain 1 M23D, chain 1 L31D, chain 1 I34D | ~63 |
| chain 1 W27D, chain 1 L31D, chain 1 I34D | ~46 |
